System: MS2 coat protein
Experiment: apparent KD of MS2 coat protein; designed switch direction (-1 OFF switch, 1 ON switch): 1; higher = weaker reporter binding
Summary of the method: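 For each design, the apparent KD is the median over clusters of curves fitted to normalised cluster fluorescence. Clusters held RNA switches with common flanks, transcribed on Illumina chips by stalled E. coli RNA polymerase. These were titrated with SNAP-549-labelled MS2 coat protein, doubling from 0.7 or 1.5 nM to 3 µM, without input, with 200 uM small-molecule ligand, or with an oligonucleotide input.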

[1] = input ligand: microRNA oligo, concentration not stated
[2] = Eterna round: R95, input ligand: FMN 200 uM
[3] = Eterna round: R95, input ligand: microRNA oligo, concentration not stated
[4] = Eterna round: R95, input ligand: none

Sequence | apparent KD of MS2 coat protein (input ligand: FMN 200 uM) | apparent KD of MS2 coat protein [1] | apparent KD of MS2 coat protein (input ligand: none) | apparent KD of MS2 coat protein [2] | apparent KD of MS2 coat protein [3] | apparent KD of MS2 coat protein [4]
AGACAUGAGGAUCACCCAUGUAUACACUGUAUCAGUGUAACAUAGGAUAUCCACCGCCAUGCUGUGGAGAAGGAUGAAACGGGC [Matearen] (Eterna round: R96, puzzle: Same State NG 3) | 175 nM | 111 nM | 99.5 nM | – | – | –
AAAAGAAACAUGUACCUGAGUACAUGAAAACAUGAGGAUCACCCAUGUAACAAGUUGGGUGCUUGUCUUAUAAGAAA [JL pocket 4] (Eterna round: R96, puzzle: Sensor for hsa-mir-208a) | 710 nM | 66.7 nM | 822 nM | – | – | –
UUAAUGAAGUAAGGAUAUACAUGAGGAUCUCUCGUAGAAGGUACUAUACAUGAGGAUCACCCAUGUGCCGGUCCGUAGACUGGA [JL SSNG1 1.04] (Eterna round: R96, puzzle: Same State NG 1) | 708 nM | 180 nM | 1280 nM | – | – | –
GAGGAACAGGCCAACAUGAGGAUCACCCAUGUCCUCGCAUUUCAGGAUAUCUGGAAGAAGAAGAAAGAGAAGGGAAGGUGAAGC [AK SSNG3-V2-34.1] (Eterna round: R96, puzzle: Same State NG 3) | 114 nM | 101 nM | 112 nM | – | – | –
UUGCUCGUGUGAGGAUAUGCCGCCGUUUCGGCUGCAGAAGGUACUGUAAUACAUGAGGAUCACCCAUGUCUCUGUUGUUUCGUG [salish99_SSNG1_r04_934] (Eterna round: R96, puzzle: Same State NG 1) | 17.1 nM | 16.4 nM | 19.3 nM | – | – | –
UUAGGAUGUGAAGGAUAUGCCGAGUUAAGCCCAGCAGAAGGUUACAUACCUUUUGAUACAUGAGGAUCACCCAUGUUCUAAGAU [Eternabot solution 45] (Eterna round: R96, puzzle: Same State NG 1) | – | 33.8 nM | – | – | – | –
GGUGCGAAUAAAGCCUACAUGAGGAUCACCCAUGUAUGUAGGCAGGAUAUCGUAUGCAAAGCAUACGAGAAGGGCUGUCGCACC [Mat - Same State NG 3 - JL Mod - D47] (Eterna round: R96, puzzle: Same State NG 3) | 30.1 nM | 56.9 nM | 85.8 nM | – | – | –
CGUCCAGCCUGAGCUGGACAAAAGCAUGUACAUGAGGAUCACCCAUGUUCAUGUACAAGCUUUUUGCUCGUCUUACA [salish99_208a_r3_091x] (puzzle: Sensor for hsa-mir-208a) | – | – | – | 691 nM | 16.2 nM | 695 nM
GCUCGAUGAGCGUCCUACAUGAGGAUCACCCAUGUUCGUGGGCAGGAUAUUUACAUGCAGAGUGUAGAGAAGGGCCCAUCGAGC [SameState NG3 #65] (Eterna round: R96, puzzle: Same State NG 3) | 546 nM | 482 nM | 477 nM | – | – | –
AGAGCCGGCACUGAGGAUAUUCAUAUUAAAACAUGAGGAUCACCCAUGUAGGCCAGAAGGCCUUGGGAGAAGGCAGGUCGGCUCA [Mat - Same State 2 - Mod of UCT - D58] (puzzle: Same State 2) | – | – | – | 25.2 nM | 212 nM | 484 nM
UUUAGUUGCGCGCAGGAUAUGUAUUAAUAUACAUGAGGAUCACCCAUGUGAGAUCGAAUAGAUCUACAGAAGGGCGAAUCGCGAC [Laonerce - 26] (puzzle: Same State 2) | – | – | – | 32.9 nM | 168 nM | 611 nM
AAUUAAGAUCAAGGAUAUCACGUCGAUUAGACGUGAGAAGGUGAUCAUAACAUGAGGAUCACCCAUGUAUUACAUGAAUUAAUU [SSNG1/2-B2] (Eterna round: R96, puzzle: Same State NG 1) | 85.7 nM | 330 nM | 397 nM | – | – | –
